Here are results for one substance from patent publication US20210040175A1.

The target in this assay is human CD20 (human) (UniProt P11836). As to the kind of experiment: cell-based or functional assay.
Sequence of UniProt P11836 (P11836 whole entry): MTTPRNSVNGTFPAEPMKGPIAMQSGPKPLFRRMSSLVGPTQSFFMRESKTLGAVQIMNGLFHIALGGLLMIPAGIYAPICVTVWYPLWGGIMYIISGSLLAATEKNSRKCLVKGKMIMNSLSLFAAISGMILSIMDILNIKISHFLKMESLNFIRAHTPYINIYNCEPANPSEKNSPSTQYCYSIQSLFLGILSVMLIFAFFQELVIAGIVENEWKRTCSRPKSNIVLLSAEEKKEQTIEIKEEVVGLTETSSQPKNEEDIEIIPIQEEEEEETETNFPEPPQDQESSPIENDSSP

Consider Rituximab (antibody), for which the ADCC by haNK cells for SUP-B15^CD20 at the highest 10:1 ET ratio was found to be 60%.
